Experimental data as given in PMC9614494.

Target: recombinant 6xHis-GBP (Arabidopsis thaliana) (UniProt Q9LU39)
Experiment: MST; 6xHis-GBP labelled with RED-NHS 2nd generation as target, with or without GluTR, ligand in 1:1 dilutions from 5 nM to 110 µM; Monolith NT.115, 30°C, 40% LED power, PBS

recombinant 6xHis-GBP (Arabidopsis thaliana), sequence (Q9LU39 43-317): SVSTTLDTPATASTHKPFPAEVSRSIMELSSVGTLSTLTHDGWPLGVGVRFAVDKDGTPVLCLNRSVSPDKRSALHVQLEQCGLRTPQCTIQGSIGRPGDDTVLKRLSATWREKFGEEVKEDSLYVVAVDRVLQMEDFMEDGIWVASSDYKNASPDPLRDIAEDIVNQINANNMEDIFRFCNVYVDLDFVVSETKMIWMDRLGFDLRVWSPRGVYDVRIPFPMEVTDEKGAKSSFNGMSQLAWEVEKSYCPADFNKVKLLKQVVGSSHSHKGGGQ

Q: How did the Kd turn out when “recombinant 6xHis-GluTR (from UniProt P42804 62-543) (enzyme)” was run?
A: 0.042 µM
